Measurements reported in the domain aggregation screens of Martell et al. (2025).

experiment: soluble fraction after stress (log2 fold change); higher = more stays soluble; pooled small domains, quantitative proteomics; conditions: stress: 50 degC
In short: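 The stress applied to every library was 50°C. These custom libraries of small protein domains were pooled and measured at high throughput with quantitative proteomics as the read-out. Aggregation propensity is expressed as the base-two logarithm of the fold change in how much of each protein remains soluble. The higher the value, the more of that protein stays in solution.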

| Sequence | soluble fraction (log2) |
| --- | --- |
| HMDAKNNPQVMAQIRAILTAKGLSEDEVKTRLKTKNIDVDKMTDQEIIAQRPAIEAIINEMEQEKKQKMG | 0.252 |
| HMDALPLIQLEKEIKDFISQGQKINAIKHYRNVMDRDFGTTISLKLAKYTVDALAQNIKVDLTKGYDQ | -0.475 |
| HMDALTLSIDAQGALYWNGQPVSRELAAQRFVEAAAQRPQPELHLRADQNVAYRHVAMTLADASRAGLTR | -0.0244 |
| HMDANAYTYKVSEDTDTRTGEKIFLVKVAEKLSRKEYIVVNNYMKSLGSYYSKFKHAFLFKENPTEKL | -0.23 |
| HMDANLGEIFKVYEQEIGALTPFVREEMLDAIDHYPRDWILDAIRESAKSNARNWKYTLAILKRWKAEG | -0.312 |
| HMDAPIIRLLNSLVQRAVTTTASDIHIEPFEGETKVRMRIDGVIIDYVTLQRALHQPLIARIKIMSNLD | -0.202 |
| HMDAPKTGSLVVSKAVNYGSWSGFTFRLHGTSDKGNSVDVTATTGSDGKAYFKDIEIGTYTLEEVN | -0.387 |
| HMDAQEAAWARKMMETLPEKQKLSVALRIEEGLSFKEIGEIIGSSEGAARVNYFHGIRRLRELL | -0.688 |
| HMDAQNLQDQLFGFLKANPTQAYPAQTLADGLRLDDANAFTKVVQALAALERGGKVKVNEEGAFQYDAEK | 0.0478 |
| HMDARSTHIAAIHVLKSKLQLQDSDYRALLLTLTGQTSSKDLSEHQRRAVRNHMQQLAERMGVVQ | -0.533 |
| HMDATFKVRVSVPDLNIRSGPGTNYAATGRFTGVGVFTITAVQSGQGSSSGWGKLKSGAGWIALDYAKR | -2.39 |
| HMDATIGGFKITDSAIYSGVKNNVNAGVRGTYIDKDGQIAFGDSNSYLKYYKDTDGKWKLEVSASSVKF | 0.139 |
| HMDAVDKDGNHMTFKKWSEQLQEAFHALELYDTTRAKQILSELVKFQVDSDITKSLKAIITNIDDMMA | -0.338 |
| HMDAYDEVTTLSQMVASGKNTTVAHLKHLKEYHQTDYLRQAVEWLLSNRKNVSFSVDEVMQEVHN | -0.0339 |
| HMDAYLPETVQKLLDVMDFDVPYSAAQLMEKLGLKSRASFRKLYLLPALEKNLIAMGVPDKPTSRNQTYIR | -0.417 |
| HMDAYSYFIRTYPLVDDPLIGDIRRIFAETHDGNPAGDADVRHILWRLLFERELYPTLDEATADWY | -2.54 |
| HMDDEAVQIMTLHISKGLEFDVVFALGLVSRTPESKEIEELEAEKQRQLYVAMTRAEKWLIVAA | -0.12 |
| HMDDEDLAFLQREFVSYQQAMDYYGLGYKPVVRLSHISGSVYKIGKKVLIRRNIFEEYLRNHV | -0.00496 |
| HMDDFGERLRKLRVAQDLTQQQLGEKLGVVPSTIGKYEKVKDSYPSIEVLIKLSDFFSVSTDYLLKG | -1.88 |
| HMDDFTEVLLQYLKDHDGYSSIHDKTDAETIYNTFGVSKKTFKKAVGDLYKKRLIVLEEEGIRLLG | -0.0665 |
| HMDDISLEEIKYISSKLETKVNEIEELLVRYYDGETNEAEEKELKEFFAQADVPAHLLAEKRLFMQLASQ | -0.0772 |
| HMDDKVGKVFNYVQEKILTGEWDIGDKITPEISLSKELGVSRSVVREAIKKFVALNILSRTQGGGTYVNNL | -0.515 |
| HMDDNMNEQWKMILNSIAKKGSVTRQETEKILGIGQTRAHVLLKAMIHAGMIKAVGDGKKRRYVR | -1.01 |

| Sequence | soluble fraction (log2) |
| --- | --- |
| HMDDNRSLSDLAQQVFKRENIQVSRDTLSLLVSRLGSDRAVSRQEIEKLALFAGSNGKLTEEDIHNALG | 0.192 |
| HMDDPISSMVNRIRLAFGLSVTDLAAVLGVERPTIYSWLKDGSTPAPARLTRVRQVLSLADTW | -0.194 |
| HMDDPITVAYRETEDAIAQVQREGFPVEMPPANSYIRRIQHELAGRFNLDSESYGDEPERRVRIRPQQ | -0.00875 |
| HMDDPTVILFDPKNGQRKIVKWKAGLTLYSARRSAGISSAAEATIQRAGKSLSGRTATALEPGDVIRW | -0.953 |
| HMDDSSLFGRHTGIGFIVDDIDSGYQTLLAKGVSFEMPPTEQPWGGILALMKDPDGNIFYLD | -0.0639 |
| HMDDTRLLSEIGLSQRVLNALRARGIERVGQVLAMRPDQLLGIRNFGPRALQELRERLQENGYTEGPLFSG | 0.309 |
| HMDDVIDVYATYDVSPTNQISNIKLYSDAAHANPVTGEAGKSYNDITEGHPGYQFRWSGTTWVPI | -0.295 |
| HMDDVIEVEGKVVEVLPNTKFIVELANSHKITAHISGKLRMNYIRIMKGDNVTVEMSPYDLTKGRIIWRS | -0.00397 |
| HMDDVVVLPFTAEFARMSSDDFVREILVGKIGMKRFVVGYNHRFGSGQQGDFASLQRMQGELGFVAVRVG | 0.0571 |
| HMDDVYMVPVKDIAINDLKQEFEKLGIPNIQNTIPDKDLNFFIVRKDDLALVNYAIEKTMER | -0.0369 |
| HMDEAETELIRRMVSEHPPTTKRERDIVQMRLRGYLFVEIGEAYGISFQRAAQIYNAAVEKIKEYWD | 0.00188 |
| HMDEEQIASRRALIMRAAREIMETQGMEALSIRKIAAMIQQTPGIIYHYFSGKEELMLAVVQEGYH | 0.111 |
| HMDEFAGSAKPLADGAAPAGYDVKGNKDSMKYHEPGGRWYDATVAEVWFKTAADAEAAGFVKAGA | 0.172 |
| HMDEFHLSERERQILNLLVLGHTYKHIASDLNIAYATVNKHVSNVYAKLRVQSASEAVALAIRKGL | -0.899 |
| HMDEFTIILEDAGSQKIAVIKEVRVLNSSLGLKEAKDLVDATPATIMEKADKATADKAKAAFEAAGAKVTI | -0.22 |
| HMDEIDYSKYSITTSNRIINIDGVQSKVELFDVSGRSIQSTMVTGKFSSRPLNAGFYIIHVDGYSVKVSV | -0.889 |
| HMDELIKQVANYIINNRATINETAGAFGKSVSSIKKYINDADKLQRIDFELYQKVKEVQKIVELNGQI | 0.144 |
| HMDEMEFQKYVDQNLKQKGISLTAEAKAELLLRLGGDTMLLHSAIEKLDLYGEKNLNLNDIKHLVSLNSDV | 0.229 |
| HMDENMQRYNTMEEIKKEFPYAEDTVRKLIAMGAIRGGGKVDANGDPADMDLSRDMLRMMVFNDRAGAYG | 0.544 |
| HMDEPGTGFKWREDVLLRVMEANGIDTSHRDDFVRHAVKFDNDDNLYLKKAEIEDAAAAWVSEHS | 0.0272 |
| HMDERLAKLTPQERKILDLIAEGATNRQIGTELHLAEKTVKNYVSNMLMKLGMSRRTEAAVFAVKASIN | -0.64 |
| HMDERLLRLYERELQFLREGADEFAQAYPKVAGHLGLNSQSMGDPFIERLLEGLGFLTARIQLQLESEF | -0.0252 |
| HMDEWFPVNDDYKFMVGDEVRTPDGLVKVVATHNDSATFYGKIITPIHDDVLKGETYEYRSYEAQVLA | -0.425 |

| Sequence | soluble fraction (log2) |
| --- | --- |
| HMDEWKRKELWDAIARLPKIQRMVVTMRTTENLPYKEIAKIMNISENSAKVNYHHAVEALKIFF | -2.66 |
| HMDEYGEVQALQRAGQTSEALARADRHIAAHPNDPQMRFVKANLLSAGGRAGEAETLLVQLTRD | -0.0234 |
| HMDFDLIAIFEEQFARALSPIEINIIKEWKNSNYSDDMIVKALKEAVKSQVFNFRYIERILINWSQNG | -0.387 |
| HMDFDVELTSAGTAKVKVIKAVREATGLGLKEAKDLVDNAPSIVKEGLDEAAANDLKAALEETGASVTL | 0.117 |
| HMDFEEGAVKWFNTKKGYGFITRDQGDDIFVHFRNIKAQSRRSLTDGERVTFVVTEGDKGLQADHVSPV | -0.31 |
| HMDFGHWAAHKLEQMSEYRLRHGEAVAIGIALDVLYSVRQGLLARPAAERILSLLERLGFTLFDPELKS | -0.213 |
| HMDFLKSVDLSKYSKVESLILSHLSKGDFDIDDFIRSFSLGTDEVTRAIVSLEIEGIILRKGNRIFRKKS | -0.0402 |
| HMDFMNSEIKKIVEDLKLTLQSLNYTKNEIKSILPVINKETDNLIKKEKYASFENLLRLAMNHLDNN | -0.462 |
| HMDFTPDQIARLDDIISRYKDKPGGLIPVLEEAQVALEYLPIGVQKRIAKGLNLPLSRVYGVVTFYSFFTM | -0.0911 |
| HMDFVKGDTVVFIDAFMPDHLMTIHKVQGEGILLDGNHKFALAHLIRHASTVELNAKRRLSLTEQS | -2.05 |
| HMDGASLLDIDGDGKVTPTIDGLLLMRWQFGTRGAALIGGISFPAGALRTTVNAIELHMRRLSETT | -0.844 |
| HMDGDVAVKGGDGVLEVRLANAANVRVYNLAGRLMADYTGTELHMPLPKGVYMVVAGDNRTKVVV | 0.074 |
| HMDGEINPYTGREYVTNSVRMHPRRIGYVQVYSRKDHKWTDMTEWAFLGEQERKKVLLGKAYEPPVYL | -1.55 |
| HMDGEMRRKRILQLLSEQTKPLSGTALAKQFGVSRQVIVQDIALLKSKEPAIISTYRGYVLGR | -0.607 |
| HMDGFAEFWSAYPKKVGKGAAEASWRKHRPPLQTVLDAVKRQAESDQWRKDGGQFIPNPATWLNQKRWEDD | 0.0948 |
| HMDGIIIPDVSGKSYAEAVATLNEKGFKVEKGEDAGSSLAKDLVSYTNPAAGNRAKSGATISVFVSTGANA | 0.17 |
| HMDGKTALQEIVASSGWSPPEYKVSESGPDHDKDFVAYAIVNGVAYPEGHGKSKREAEQVAARIAFEALSK | -0.18 |
| HMDGMRASDMVRAALAGAGKTQKELAEHMGWTPQNLSGRLKNNSLTFDELSKALHFAGYEVSMSDANGAG | 0.0567 |
| HMDGNVPSVEGKPLSGAKYILETYGYKTGTVTEVNSEDVPAGIVISQNPARGTTLANGGSVNLQVSLG | 0.321 |
| HMDGPGAGGRFLAEDLGTGKMTLEALQRHYVTLVYSRTGKYEETARRLEIDRRTVKKYLDEELLAELRET | 0.084 |
| HMDGQGIRSITPEYYLSDSATKMPDASSSGWKSVPDDYIDKHYYWVRSKILWDDGTYTTTTPVL | -0.364 |
| HMDGRVQATAEKLRAALDRLARSSVGSPMIERQLTVAALAREARVGRNAIYANHRDILDELIRVRQQRRA | 0.144 |
